Assay results taken from the supplement of paper PMC11246515.
± gives the standard deviation of the averaged measurements.

Experiment: total protein half-life in vivo (active degradation + dilution); higher = more stable protein
[1] = E. coli NCM3722 delta-clpP delta-lon delta-hslV, growth: N-lim chemostat, doubling time 6 h
[2] = E. coli NCM3722 delta-clpP, growth: N-lim chemostat, doubling time 6 h
[3] = E. coli NCM3722 delta-hslV, growth: N-lim chemostat, doubling time 6 h
[4] = E. coli NCM3722 delta-lon, growth: N-lim chemostat, doubling time 6 h
[5] = E. coli NCM3722 delta-smpB, growth: N-lim chemostat, doubling time 6 h
[6] = wild type E. coli NCM3722, growth: C-lim chemostat, doubling time 3 h
[7] = wild type E. coli NCM3722, growth: C-lim chemostat, doubling time 6 h
[8] = wild type E. coli NCM3722, growth: C-lim chemostat, doubling time 12 h
[9] = wild type E. coli NCM3722, growth: N-lim chemostat, doubling time 6 h
[10] = wild type E. coli NCM3722, growth: N-lim chemostat, doubling time 12 h
[11] = wild type E. coli NCM3722, growth: P-lim chemostat, doubling time 6 h
[12] = wild type E. coli NCM3722, growth: P-lim chemostat, doubling time 12 h

| Sequence | total protein half-life in vivo [1] | total protein half-life in vivo [2] | total protein half-life in vivo [3] | total protein half-life in vivo [4] | total protein half-life in vivo [5] | total protein half-life in vivo [6] | total protein half-life in vivo [7] | total protein half-life in vivo [8] | total protein half-life in vivo [9] | total protein half-life in vivo [10] | total protein half-life in vivo [11] | total protein half-life in vivo [12] |
| --- | --- | --- | --- | --- | --- | --- | --- | --- | --- | --- | --- | --- |
| MPIQVLPPQLANQIAAGEVVERPASVVKELVENSLDAGATRIDIDIERGGAKLIRIRDNGCGIKKDELALALARHATSKIASLDDLEAIISLGFRGEALASISSVSRLTLTSRTAEQQEAWQAYAEGRDMNVTVKPAAHPVGTTLEVLDLFYNTPARRKFLRTEKTEFNHIDEIIRRIALARFDVTINLSHNGKIVRQYRAVPEGGQKERRLGAICGTAFLEQALAIEWQHGDLTLRGWVADPNHTTPALAEIQYCYVNGRMMRDRLINHAIRQACEDKLGADQQPAFVLYLEIDPHQVDVNVHPAKHEVRFHQSRLVHDFIYQGVLSVLQQQLETPLPLDDEPQPAPRSIPENRVAAGRNHFAEPAAREPVAPRYTPAPASGSRPAAPWPNAQPGYQKQQGEVYRQLLQTPAPMQKLKAPEPQEPALAANSQSFGRVLTIVHSDCALLERDGNISLLSLPVAERWLRQAQLTPGEAPVCAQPLLIPLRLKVSAEEKSALEKAQSALAELGIDFQSDAQHVTIRAVPLPLRQQNLQILIPELIGYLAKQSVFEPGNIAQWIARNLMSEHAQWSMAQAITLLADVERLCPQLVKTPPGGLLQSVDLHPAIKALKDE | 5.64 ± 0.16 h | 5.376 ± 0.017 h | 4.58 ± 0.16 h | 5.29 ± 0.063 h | 4.59 ± 0.048 h | 3.002 ± 0.009 h | 5.614 ± 0.0069 h | 9.34 ± 0.55 h | 4.635 ± 0.043 h | 8.197 ± 0.054 h | 5.43 ± 0.11 h | 10.2 ± 0.69 h |
| MAYTTFSQTKNDQLKEPMFFGQPVNVARYDQQKYDIFEKLIEKQLSFFWRPEEVDVSRDRIDYQALPEHEKHIFISNLKYQTLLDSIQGRSPNVALLPLISIPELETWVETWAFSETIHSRSYTHIIRNIVNDPSVVFDDIVTNEQIQKRAEGISSYYDELIEMTSYWHLLGEGTHTVNGKTVTVSLRELKKKLYLCLMSVNALEAIRFYVSFACSFAFAERELMEGNAKIIRLIARDEALHLTGTQHMLNLLRSGADDPEMAEIAEECKQECYDLFVQAAQQEKDWADYLFRDGSMIGLNKDILCQYVEYITNIRMQAVGLDLPFQTRSNPIPWINTWLVSDNVQVAPQEVEVSSYLVGQIDSEVDTDDLSNFQL | 4.55 ± 0.57 h | 4.92 ± 1.1 h | 3.45 ± 0.054 h | 4.25 ± 0.52 h | 3.62 ± 0.26 h | 3.04 ± 0.28 h | 5.7 ± 0.76 h | 9.25 ± 0.099 h | 3.415 ± 0.022 h | 5.12 ± 0.56 h | 5.24 ± 0.12 h | 9.5 ± 0.26 h |
| MPKRTDIKSILILGAGPIVIGQACEFDYSGAQACKALREEGYRVILVNSNPATIMTDPEMADATYIEPIHWEVVRKIIEKERPDAVLPTMGGQTALNCALELERQGVLEEFGVTMIGATADAIDKAEDRRRFDVAMKKIGLETARSGIAHTMEEALAVAADVGFPCIIRPSFTMGGSGGGIAYNREEFEEICARGLDLSPTKELLIDESLIGWKEYEMEVVRDKNDNCIIVCSIENFDAMGIHTGDSITVAPAQTLTDKEYQIMRNASMAVLREIGVETGGSNVQFAVNPKNGRLIVIEMNPRVSRSSALASKATGFPIAKVAAKLAVGYTLDELMNDITGGRTPASFEPSIDYVVTKIPRFNFEKFAGANDRLTTQMKSVGEVMAIGRTQQESLQKALRGLEVGATGFDPKVSLDDPEALTKIRRELKDAGADRIWYIADAFRAGLSVDGVFNLTNIDRWFLVQIEELVRLEEKVAEVGITGLNADFLRQLKRKGFADARLAKLAGVREAEIRKLRDQYDLHPVYKRVDTCAAEFATDTAYMYSTYEEECEANPSTDREKIMVLGGGPNRIGQGIEFDYCCVHASLALREDGYETIMVNCNPETVSTDYDTSDRLYFEPVTLEDVLEIVRIEKPKGVIVQYGGQTPLKLARALEAAGVPVIGTSPDAIDRAEDRERFQHAVERLKLKQPANATVTAIEMAVEKAKEIGYPLVVRPSYVLGGRAMEIVYDEADLRRYFQTAVSVSNDAPVLLDHFLDDAVEVDVDAICDGEMVLIGGIMEHIEQAGVHSGDSACSLPAYTLSQEIQDVMRQQVQKLAFELQVRGLMNVQFAVKNNEVYLIEVNPRAARTVPFVSKATGVPLAKVAARVMAGKSLAEQGVTKEVIPPYYSVKEVVLPFNKFPGVDPLLGPEMRSTGEVMGVGRTFAEAFAKAQLGSNSTMKKHGRALLSVREGDKERVVDLAAKLLKQGFELDATHGTAIVLGEAGINPRLVNKVHEGRPHIQDRIKNGEYTYIINTTSGRRAIEDSRVIRRSALQYKVHYDTTLNGGFATAMALNADATEKVISVQEMHAQIK | 5.02 ± 0.092 h | 4.45 ± 0.4 h | 4.581 ± 0.016 h | 5 ± 0.33 h | 4.81 ± 0.32 h | 3.11 ± 0.25 h | 5.75 ± 0.28 h | 10.6 ± 0.13 h | 4.65 ± 0.3 h | 8.22 ± 0.41 h | 6.2 ± 0.28 h | 12.6 ± 0.28 h |
| MKVAVLGAAGGIGQALALLLKTQLPSGSELSLYDIAPVTPGVAVDLSHIPTAVKIKGFSGEDATPALEGADVVLISAGVARKPGMDRSDLFNVNAGIVKNLVQQVAKTCPKACIGIITNPVNTTVAIAAEVLKKAGVYDKNKLFGVTTLDIIRSNTFVAELKGKQPGEVEVPVIGGHSGVTILPLLSQVPGVSFTEQEVADLTKRIQNAGTEVVEAKAGGGSATLSMGQAAARFGLSLVRALQGEQGVVECAYVEGDGQYARFFSQPLLLGKNGVEERKSIGTLSAFEQNALEGMLDTLKKDIALGEEFVNK | 4.53 ± 0.53 h | 3.92 ± 0.44 h | 3.803 ± 0.013 h | 4.42 ± 0.25 h | 3.84 ± 0.068 h | 3.039 ± 0.028 h | 5.65 ± 0.34 h | 9.69 ± 0.74 h | 3.98 ± 0.16 h | 6.2 ± 0.2 h | 5.94 ± 0.074 h | 11.8 ± 0.51 h |
| MESWLIPAAPVTVVEEIKKSRFITMLAHTDGVEAAKAFVESVRAEHPDARHHCVAWVAGAPDDSQQLGFSDDGEPAGTAGKPMLAQLMGSGVGEITAVVVRYYGGILLGTGGLVKAYGGGVNQALRQLTTQRKTPLTEYTLQCEYHQLTGIEALLGQCDGKIINSDYQAFVLLRVALPAAKVAEFSAKLADFSRGSLQLLAIEE | 5.13 h | 3.99 ± 0.14 h |  | 3.84 ± 0.059 h | 2.87 ± 0.15 h | 2.93 ± 0.19 h | 4.62 ± 0.11 h | 15 h | 3.48 ± 0.22 h | 4.67 ± 0.14 h | 4.78 h | 7.73 ± 0.15 h |
